Measured values from patent publication US20250197505A1.

Assays:
[1] = target: human CD94 expressed on cells (human primary NK cells in PBMCs; HEK cells expressing human CD94) (human) (UniProt Q13241); experiment: flow cytometry, PE HLA-E tetramer on NK cells of PBMCs pre-incubated with antibody; competitor HLA-E tetramer
[2] = target: human CD94 expressed on cells (human primary NK cells in PBMCs; HEK cells expressing human CD94) (human) (UniProt Q13241); experiment: HLA-E tetramer blocking assay, flow cytometry on CD3-CD56+ NK cells in healthy donor PBMCs; antibody at one saturating concentration, blocked ligand PE-labelled HLA-E tetramer; percent blocking = 100-((percent HLA-E positive with antibody)/(percent HLA-E positive with isotype)*100)
[3] = target: human CD94 expressed on cells (human primary NK cells in PBMCs; HEK cells expressing human CD94) (human) (UniProt Q13241); experiment: flow cytometry titration on CD3-CD56+ NK cells in healthy donor PBMCs; 'Affinity on Human NK Cells'; the filing derives these affinities as EC50 of titration curves (the 2.6nM of 18H3 is labelled EC50 in FIG. 1)
[4] = target: human CD94 expressed on cells (human primary NK cells in PBMCs; HEK cells expressing human CD94) (human) (UniProt Q13241); experiment: cell-based or functional assay
[5] = target: human CD94 expressed on cells (human primary NK cells in PBMCs; HEK cells expressing human CD94) (human) (UniProt Q13241); experiment: competition assay, flow cytometry on CD3-CD56+ NK cells in healthy donor PBMCs; HP-3B1 titrated in the presence of Mouse IgG1 control (no competitor)
[6] = target: human CD94 expressed on cells (human primary NK cells in PBMCs; HEK cells expressing human CD94) (human) (UniProt Q13241); experiment: competition assay, flow cytometry on CD3-CD56+ NK cells in healthy donor PBMCs; HP-3B1 titrated in the presence of Human IgG1 control (no competitor)
[7] = target: human CD94 expressed on cells (human primary NK cells in PBMCs; HEK cells expressing human CD94) (human) (UniProt Q13241); experiment: as above; remark: listed apart in the source

Chain of human CD94 expressed on cells (human primary NK cells in PBMCs; HEK cells expressing human CD94) (human) (Q13241 whole entry): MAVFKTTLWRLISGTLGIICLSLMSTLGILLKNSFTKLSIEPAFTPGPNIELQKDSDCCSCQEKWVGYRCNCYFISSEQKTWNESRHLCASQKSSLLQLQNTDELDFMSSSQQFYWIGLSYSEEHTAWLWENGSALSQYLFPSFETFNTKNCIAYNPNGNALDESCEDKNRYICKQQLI

percent HLA-E blocking [1] [%] | HLA-E Blocking [2] [%] | EC50 [3] [nM] | percent decrease in MFI (antibody internalization assay), comparing 0.5 hours to 24 hours at 37° C. [4] [%] | EC50 (read off the curve) [5] [nM] | EC50 (read off the curve) [6] [nM] | EC50 (read off the curve) [7] [nM] | Substance
> 40 | 47 | 7 | – | – | – | – | commercial anti-CD94 antibody clone 12K45
> 40 | 99 | 0.15 | 56 | – | – | – | commercial anti-CD94 antibody clone DX22
> 40 | 99 | 0.07 | 54 | – | – | – | commercial anti-CD94 antibody clone HP-3D9
> 40 | 99.8 | 3 | – | 2 | 3 | 2 | commercial anti-CD94 antibody clone HP-3B1
> 40 | 40 | 11 | – | – | – | – | commercial anti-CD94 antibody clone 131412
